Laboratory results from the RNAGym collection of RNA variant scans (doi:10.7554/elife.80360).

B1: CPEB3 Ribozyme (parent)
chain: GGGGGCCACAGCAGAAGCGUUCACGUCGCGGCCCCUGUCAGAUUCUGGUGAAUCUGCGAAUUCUGCUGU

Variants of: B1
Experiment: self-cleavage, relative activity (ratio to wild type); higher = more cleavage; co-transcriptional
Work on C45A A51G yielded a self-cleavage of 1.02. Variant C45A A51C has a self-cleavage of 0.924. With C45A G50A the self-cleavage was 1.02. Variant U44G U49G has a self-cleavage of 0.927. In the case of U44C U46A, the self-cleavage is reported as 0.958. In the case of U44C U46C, the self-cleavage is reported as 0.972. In the case of U44C C54U, the self-cleavage is reported as 0.816. Work on U44C C54A yielded a self-cleavage of 0.627. U44C C54G gave a self-cleavage of 0.599. U44C A59U gave a self-cleavage of 0.657. With U44C A59C the self-cleavage was 0.577. U44C A59G gave a self-cleavage of 0.958. Variant U44A U64A has a self-cleavage of 0.843. U44A U64G gave a self-cleavage of 0.8. In the case of U44G G58U, the self-cleavage is reported as 0.959. Variant U44G G58A has a self-cleavage of 0.922. U44G G58C showed a self-cleavage of 0.944. U44G C54G gave a self-cleavage of 0.417. Work on U44G C54U yielded a self-cleavage of 0.87. Variant U44G G50C has a self-cleavage of 0.949. Work on U44G G50U yielded a self-cleavage of 0.98. For C45A G48C, the self-cleavage was 1.01. C45A G48U gave a self-cleavage of 0.976. For C45A A52U, the self-cleavage was 0.919. Variant U44A G47C has a self-cleavage of 0.93. U44C U64A showed a self-cleavage of 0.662. Work on U44C U64G yielded a self-cleavage of 0.719. Variant C45A C63A has a self-cleavage of 0.817. U44C C63U gave a self-cleavage of 0.819. U44C C63G showed a self-cleavage of 0.417. Variant U44G A60U has a self-cleavage of 0.382. Variant U44G A60C has a self-cleavage of 0.368. U44G A60G showed a self-cleavage of 0.819. Variant C45A C66G has a self-cleavage of 0.788. With U44A G50C the self-cleavage was 1. Variant U44A G50U has a self-cleavage of 0.984. U44C U67G gave a self-cleavage of 0.931. U44C U67A gave a self-cleavage of 0.954. With U44C U61C the self-cleavage was 0.317. Variant U44A U53G has a self-cleavage of 0.84. Work on U44A U53C yielded a self-cleavage of 0.684. With U44A U53A the self-cleavage was 0.922. In the case of C45A A59U, the self-cleavage is reported as 0.793. For C45A A59C, the self-cleavage was 0.613. U44G G56U gave a self-cleavage of 0.666. U44C A51C gave a self-cleavage of 0.99. U44C A51G gave a self-cleavage of 0.693. For U44C A51U, the self-cleavage was 0.919. Work on C45A C54G yielded a self-cleavage of 0.562. C45A C54U gave a self-cleavage of 0.926. For U44G U53A, the self-cleavage was 0.755. Variant U44G U53C has a self-cleavage of 0.749. Work on U44G G65U yielded a self-cleavage of 0.674. U44G G65C showed a self-cleavage of 0.445. With U44G G65A the self-cleavage was 0.812. In the case of U44G, the self-cleavage is reported as 0.985. U44C gave a self-cleavage of 0.957. U44A G68C gave a self-cleavage of 1.01. For U44A G68U, the self-cleavage was 0.981. In the case of U44A G68A, the self-cleavage is reported as 0.964. Work on U44G C63U yielded a self-cleavage of 0.918. With U44G C63A the self-cleavage was 0.835. In the case of U44G U62C, the self-cleavage is reported as 0.842. For U44C A52C, the self-cleavage was 0.95. U44C A52U gave a self-cleavage of 1. Variant U44C A52G has a self-cleavage of 1.01. U44A U67G gave a self-cleavage of 0.984. With U44A U67C the self-cleavage was 0.973. Variant U44A U67A has a self-cleavage of 0.936. U44C G58U showed a self-cleavage of 0.963. With U44C G58A the self-cleavage was 0.981. For U44C G58C, the self-cleavage was 0.917. C45A G56U showed a self-cleavage of 0.695. C45A G56C showed a self-cleavage of 0.482. Variant U44A G58C has a self-cleavage of 1.01. Variant U44G U69C has a self-cleavage of 1.04. In the case of U44G U69G, the self-cleavage is reported as 1.04. With U44G U69A the self-cleavage was 1.01. In the case of U44G U46C, the self-cleavage is reported as 0.928. For U44G U46G, the self-cleavage was 0.909. Variant U44G U46A has a self-cleavage of 0.978. In the case of U44G A51G, the self-cleavage is reported as 0.671. For U44G A51C, the self-cleavage was 0.966. With U44G A51U the self-cleavage was 0.941. Variant U44G U67C has a self-cleavage of 0.977. Work on U44G U67A yielded a self-cleavage of 0.883. U44G U67G gave a self-cleavage of 1.01. C45A G65C gave a self-cleavage of 0.533. With C45A G65U the self-cleavage was 0.729. U44C G50C showed a self-cleavage of 0.948. For U44C G50U, the self-cleavage was 0.93. U44C A60G showed a self-cleavage of 0.669. With U44C A60U the self-cleavage was 0.441. With U44C U49C the self-cleavage was 0.83. With U44C U49A the self-cleavage was 0.931. Work on U44C U49G yielded a self-cleavage of 0.959. For U44C G47A, the self-cleavage was 0.979. Variant U44C G47U has a self-cleavage of 1.01. Work on U44G C45A yielded a self-cleavage of 0.932. U44G U61C showed a self-cleavage of 0.649. Work on U44G U61G yielded a self-cleavage of 0.82. Variant U44A U61C has a self-cleavage of 0.662. With U44A U61A the self-cleavage was 0.843. U44C C66G showed a self-cleavage of 0.464. U44C C66A showed a self-cleavage of 0.502. Work on U44C C66U yielded a self-cleavage of 0.928. U44A U49A showed a self-cleavage of 1.02. For U44A U49G, the self-cleavage was 0.993. U44G U55C showed a self-cleavage of 0.512. U44A G65A gave a self-cleavage of 0.755. With U44A G65C the self-cleavage was 0.422. U44A G65U gave a self-cleavage of 0.588. In the case of U44C C57A, the self-cleavage is reported as 0.301. For U44C C57U, the self-cleavage was 0.419. Variant U44C C57G has a self-cleavage of 0.362. For U44A G56A, the self-cleavage was 0.849. U44A G56C showed a self-cleavage of 0.383. U44A U46A showed a self-cleavage of 0.99. Variant U44C G65C has a self-cleavage of 0.452. Variant U44G U64C has a self-cleavage of 0.754. Work on U44G U64G yielded a self-cleavage of 0.84. In the case of U44C C45U, the self-cleavage is reported as 0.955. For U44C C45A, the self-cleavage was 0.998. U44G G68U gave a self-cleavage of 1.03. Variant U44G G68A has a self-cleavage of 0.942. Work on U44G G68C yielded a self-cleavage of 1.01. Work on C45A G68A yielded a self-cleavage of 1.02. Work on U44G C66U yielded a self-cleavage of 0.986. Work on U44G C66G yielded a self-cleavage of 0.707. C45A G58C gave a self-cleavage of 1.02. In the case of C45A G58A, the self-cleavage is reported as 1. With C45A the self-cleavage was 0.984. U44C G48U gave a self-cleavage of 1.02. For U44C G48A, the self-cleavage was 1.02. For U44C G48C, the self-cleavage was 1. For U44A U62C, the self-cleavage was 0.774. Variant U44A U62G has a self-cleavage of 0.685. For U44C U62C, the self-cleavage was 0.572. Work on U44C U62G yielded a self-cleavage of 0.664. Variant U44G G48C has a self-cleavage of 0.965. In the case of U44C U55A, the self-cleavage is reported as 0.524. U44C U55C gave a self-cleavage of 0.473. U44C U53G gave a self-cleavage of 0.747. Work on U44C U53A yielded a self-cleavage of 0.895. Work on U44C U53C yielded a self-cleavage of 0.647. In the case of U44G A59U, the self-cleavage is reported as 0.612. Work on U44G A59G yielded a self-cleavage of 0.951. U44C G56U showed a self-cleavage of 0.388. Variant U44C G56C has a self-cleavage of 0.351. U44G A52U showed a self-cleavage of 0.975. U44G A52G showed a self-cleavage of 0.943. For U44G G47C, the self-cleavage was 0.962. U44G G47A showed a self-cleavage of 0.954. U44G G47U showed a self-cleavage of 1.01. C45A C57G gave a self-cleavage of 0.252. For U44A U69G, the self-cleavage was 1.02. U44A U69C showed a self-cleavage of 1.05. With U44A U69A the self-cleavage was 0.956. Variant U44A C66U has a self-cleavage of 0.926. U44C U69G showed a self-cleavage of 1.02. With U44C U69A the self-cleavage was 0.927. In the case of U44C U69C, the self-cleavage is reported as 1.07. In the case of U44A U55A, the self-cleavage is reported as 0.566. In the case of U44A U55C, the self-cleavage is reported as 0.496. U44A G48A gave a self-cleavage of 0.953. Variant U44C G68C has a self-cleavage of 0.949. U44C G68A gave a self-cleavage of 0.979.
